Holding throughout (type): cell-based
One assay concerns Swiss 3T3 cells. As to the kind of experiment: UV-induced apoptosis in Swiss 3T3 clones with IPTG-inducible MEKKCOOH
Particulars: two hours after ultraviolet irradiation. As to the method: FIG. 16. Induction of MEKKCOOH expression by IPTG in Swiss 3T3 cells increases the number of condensed cells and stimulates c-Myc transactivation. In panel A, cells were incubated in the presence or absence of 5 mM IPTG for forty eight hours. Cells were stained with acrodine orange and condensed cells quantitated per 1000 cells counted per coverslip. In panel B Swiss 3T3 cells with inducible MEKKCOOH were incubated in the presence or absence of IPTG. The indicated cells were then exposed to UV-C irradiation and then fixed and stained with propidium iodide. The percentage of apoptotic cells was enumerated.
Because stable expression of MEKKCOOH appeared to inhibit clonal expansion of Swiss 3T3 cells under G418 drug selection, clones were isolated having inducible expression of the kinase. The Lac Switch expression system (Stratagene) was used to control the expression of MEKKCOOH. Several independent clones were isolated and their properties analyzed in the presence or absence of IPTG-induced expression of MEKKCOOH. The parental LacR+ clone expressing only the Lac repressor was used as the control. […] This is probably due to a basal level of MEKKCOOH expression in uninduced cells. […] This maybe related to selection of cells during the cloning procedure that adapted to a low, constitutive level of MEKKCOOH expression. […]

For another assay, the system named is Gal4/Elk-1. The assay is described as follows: Gal4-TK-luciferase transactivation analysis, Gal4/Elk-1. Particulars: expression in Swiss 3T3 cells. An excerpt: Swiss 3T3 cells were transfected using calcium phosphate or lipofectamine with the reporter plasmid Gal4-TK-luciferase, which contains four Gal4 binding sites (Sadowski, I., et al. (1988). Nature 335, 563-564). adjacent to a minimal thymidine kinase (TK) promoter that controls expression of luciferase, in the presence or absence of activator plasmids encoding Gal4(1-147)/Myc(7-101) (Gupta et al. (1993) Proc. Natl. Acad. Sci. USA 90:3216-3220), Gal4(1-47)/Elk-1(83-428) (Marais, et al. (1993) Cell 73:381-393) or Gal4(1-147)/c-Jun(1-233) Hibi et al. (1993) Genes & Development 7:2135-2148). Transfections included pCMV5 without a cDNA insert (basal control), pCMV5MEKKCOOH and in some experiments pCMV5BxBRaf. Cells were incubated for 24-48 hr after transfection, lysed and assayed for luciferase activity. Values were normalized to equivalent μg protein for all experiments.

A further assay relates to JNK/SAPK. The assay is described as follows: JNK/SAPK activity in Swiss 3T3 clones with inducible MEKKCOOH
Particulars: 17 hours IPTG induction. How it is done:
JNK/SAPK: Activity was measured using GST (glutathione S-transferase)—c-Jun (1-79) BOUND to glutathione-Sepharose-4B (Hibi et al. supra). Cells expressing MEKKCOOH or control cells were lysed in 0.5% Nonidet P40 (NP40), 20 mM Tris-HCl, pH 7.6, 0.25 NaCl, 3 mM EDTA, 3 mM EGTA, 1 mM dithiothreitol, 1 mM phenylmethylsulfonyl fluoride, 2 mM sodium vanadate, 20 μg/ml aprotinin and 5 μg/ml leupeptin. Lysates were centrifuged at 15,000×g for 10 min to remove nuclei and supernatants (25 μg protein) mixed with 10 μl of GST-c-JUN(1-79)-Sepharose (3-5 μg of GST-c-Jun(1-79)). The mixture was rotated at 4° C. for 1 hr, washed 2× in lysis buffer and 1× in kinase buffer (20 mM Hepes, pH 7.5, 10 mM MgCl2, 20 mM β-glycerophosphate, 10 mM p-nitrophenyl phosphate, 1 mM dithiothreitol, 50 μM sodium vanadate). Beads were suspended in 40 μl of kinase buffer with 10 μCi Of [γ^32P] ATP and incubated at 30° C. for 20 min. Samples were boiled in Laemmli buffer and phosphorylated proteins resolved on SDS/10% polyacrylamide gels. To verify the selectivity of the JNK/SAPK assay cell lysates were fractionated by Mono Q ion exchange chromatography and each fraction assayed as described above. Fractions were also immunoblotted with a rabbit antisera recognizing JNK/SAPK. […]

B1: MEKKCOOH: a truncated activated form of MEKK1 including the entire kinase domain (protein)
chain: MAMSASQDALPIVPQLQVENGEDIIIIQQDTPETLPGHTKAKQPYREDAEWLKGQQIGLGAFSSCYQAQDVGTGTLMAVKQVTYVRNTSSEQEEVVEALREEIRMMGHLNHPNIIRMLGATCEKSNYNLFIEWMAGGSVAHLLSKYGAFKESVVINYTEQLLRGLSYLHENQIIHRDVKGANLLIDSTGQRLRIADFGAAARLASKGTGAGEFQGQLLGTIAFMAPEVLRGQQYGRSCDVWSVGCAIIEMACAKPPWNAEKHSNHLALIFKIASATTAPSIPSHLSPGLRDVAVRCLELQPQDRPPSRELLKHPVFRTTW
As for B1, in the assay with Swiss 3T3 cells, the “cells morphologically highly condensed, appearing apoptotic” value was “greater than 30%”. Moreover, the “transactivation function of Elk-1” value with Gal4/Elk-1 is given as “markedly activated”. Moreover, the JNK/SAPK activity entry in the assay with JNK/SAPK is “stimulated JNK/SAPK activity”.

The values are drawn from patent publication US20080201790A1, “Method and product for regulating cell responsiveness to external signals” (priority 1993, published 2008).
